This note sets out measurements from article PMC10631208.

In series [1] the target is T1, PDGF-BB (human, UniProt P01127 82-190). Description: structure-switching fluorescence.
For series [2], the target named is T1, PDGF-BB. The series can be described thus: structure-switching fluorescence. This is another data set of the same source.

T1 sequence (P01127 82-190): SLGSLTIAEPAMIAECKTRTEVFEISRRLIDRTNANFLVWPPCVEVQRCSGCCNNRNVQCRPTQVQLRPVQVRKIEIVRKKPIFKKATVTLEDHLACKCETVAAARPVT

B1: SPDGF (Apt35-FAM/cDNA12-BHQ1/cDNADCV) (mixed)
DNA 1: AAGGCTACGGCACGTAGAGCATCACCATGATCCTGTGTGGTCTATGTCGTCGTTCG
DNA 2: TGCCGTAGCCTT
DNA 3: AAGTATTACCAGAAACGAACGACGACATAGACCACA
Take B1: the binding signal in the series with PDGF-BB [1] is ~6.9 fold fluorescence increase.

B2: mSPDGF (mApt35-FAM/cDNA12-BHQ1/cDNADCV) (mixed)
DNA 1: AAGGCTACGGCACGATCTCGTAGTGGTCTGACTGCTGTGGTCTATGTCGTCGTTCG
DNA 2: TGCCGTAGCCTT
DNA 3: AAGTATTACCAGAAACGAACGACGACATAGACCACA
In the case of B2, the binding result with PDGF-BB [2] is “no binding”.
